Assay results as given in publication doi:10.1101/151043 (bioRxiv, 2017).

Experiments:
[1] = target: recombinant human serum albumin from S. cerevisiae, biotin labelled (Homo sapiens, UniProt P02768, EZ-Link NHS-PEG4-Biotin labelled); assay: SPR
[2] = target: mouse serum albumin (Mus musculus, UniProt P07724, EZ-Link NHS-PEG4-Biotin labelled); assay: SPR
Sequence of mouse serum albumin (P07724 25-608): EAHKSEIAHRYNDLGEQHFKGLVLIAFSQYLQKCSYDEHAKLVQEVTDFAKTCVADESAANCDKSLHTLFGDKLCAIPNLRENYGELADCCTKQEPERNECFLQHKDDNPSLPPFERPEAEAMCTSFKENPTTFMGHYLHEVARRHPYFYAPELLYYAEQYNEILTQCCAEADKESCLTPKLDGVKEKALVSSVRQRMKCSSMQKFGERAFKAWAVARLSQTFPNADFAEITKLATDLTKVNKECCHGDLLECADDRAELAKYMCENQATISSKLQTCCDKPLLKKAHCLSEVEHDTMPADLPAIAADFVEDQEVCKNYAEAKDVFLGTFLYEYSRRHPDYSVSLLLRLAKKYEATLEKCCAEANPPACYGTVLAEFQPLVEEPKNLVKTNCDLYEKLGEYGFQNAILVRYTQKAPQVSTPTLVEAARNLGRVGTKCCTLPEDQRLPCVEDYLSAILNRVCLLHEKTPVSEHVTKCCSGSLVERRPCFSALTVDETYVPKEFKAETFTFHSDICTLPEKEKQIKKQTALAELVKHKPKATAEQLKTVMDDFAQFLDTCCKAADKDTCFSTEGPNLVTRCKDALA

Sequence of recombinant human serum albumin from S. cerevisiae, biotin labelled (P02768 25-609): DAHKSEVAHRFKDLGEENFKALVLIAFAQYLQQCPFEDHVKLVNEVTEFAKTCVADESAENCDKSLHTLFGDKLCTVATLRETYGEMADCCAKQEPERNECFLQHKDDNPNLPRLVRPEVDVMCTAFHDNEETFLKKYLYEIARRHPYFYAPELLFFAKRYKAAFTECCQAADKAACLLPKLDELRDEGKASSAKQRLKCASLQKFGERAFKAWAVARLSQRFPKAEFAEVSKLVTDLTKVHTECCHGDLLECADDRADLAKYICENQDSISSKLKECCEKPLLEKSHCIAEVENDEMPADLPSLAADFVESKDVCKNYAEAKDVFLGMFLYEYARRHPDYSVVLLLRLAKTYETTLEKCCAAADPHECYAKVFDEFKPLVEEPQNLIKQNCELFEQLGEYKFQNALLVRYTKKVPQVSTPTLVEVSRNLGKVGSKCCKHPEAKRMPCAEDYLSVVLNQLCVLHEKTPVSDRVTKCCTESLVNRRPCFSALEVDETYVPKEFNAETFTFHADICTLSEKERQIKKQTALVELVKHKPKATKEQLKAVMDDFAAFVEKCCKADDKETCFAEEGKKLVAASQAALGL

B1: Nb.b201 (VHH)
VHH: QVQLQESGGGLVQAGGSLRLSCAASGYISDAYYMGWYRQAPGKEREFVATITHGTNTYYADSVKGRFTISRDNAKNTVYLQMNSLKPEDTAVYYCAVLETRSYSFRYWGQGTQVTVSS
- Kd [1]: 430 nM
- binding result [2]: no binding
